Experimental data as given in the DeepSol protein solubility set.

Test: soluble on expression in E. coli; label from the status in PepcDB or PDB records

Sequence | soluble on expression in E. coli
MPPAGQDDLDFLKYAMESYVADVNADIGKTTIVFTLREKAGALAETLKLFQAHDVNLSHIESRPSKTHEGCYEVLVEFAEAEDHRKIEGVIEHFQQKAEKKVLVQDWNTKNKQNKDSVPWFPQKINDIDQFANRILSYGAELDADHPGFKDMTYRERRKFFADIAFNFKHGDKIPTITYTDEEIATWRTVYNELTVMYPKNACQEFNYIFPLLQQNCGFGPDRIPQLQDVSDFLKDCTGYTIRPVAGLLSSRDFLAGLAFRVFHSTQYIRHHSAPKYTPEPDICHELLGHVPLFADVEFAQFSQEIGLASLGAPDDVIEKLATLYWFTIEFGICQQDGEKKAYGAGLLSSFGELQYALSDKPEVVDFDPAVCCVTKYPITEYQPKYFLAESFASAKNKLKSWAATINRPFQIRYNAYTQRVEILDKVAALQRLARDIRSDISTLEEALGKVNNLKMK | not soluble
MGSDKIHHHHHHMGRRSHSRSLSIWTNGVRVGRWTVPARGEMELQYDVDWVRADVGRPLSLSLPFNLQNLPLKGERVANYFDNLLPDSDAIRRRVAERFRTGSVDPFDLLKAIGRDCVGAVQILEDEEIPEGFDRIEGVPLSEEDIERHLIETVTPRAFAAGRDPDADFRISLAGAQEKTAFLWWGGQWLAPRGATSTSHIFKLPLGLVGGRRADFSTSVDNEWLCLKLLKAYGLDVAEASIATFGQQRVLVVERFDRRVAPNGQWLMRLPQEDFCQVEGCSPLRKYENEGGPGLKALFATLRQSVNAAVDMRTLMAAQILFWLLRAPDGHAKNFSIQLLPRGRFQLTRLYDVMSAYPVLGDGANQWSPFEIKLAMALIGKNRHYEMHGIQRRHFNSTAQKVGYGPTAEPIIEDLLARTPAIIAAVQADLPQDFSPRVADSVLGGLAQAAKSLGAMMP | not soluble
MGENSLWNVYKTVSFWKVMKNFIIIQIARYTPCLSVKNWLYRTFLRMKVGKKTSFALMVMPDIMFPEKITVGENSIIGYNTTLLAHEYLIREYRLGEIVIGNEVMIGANVTILPGVKIGDGATVSAGTLVHRDVPSGAFVGGNPMRIIYTLEHHHHHH | soluble
MRALIRYEDVPSKLWTLPKMTDFWGIGKRTEKRLNKLGISSIKELTNADPLLLKQKLGTIGLQHFFHANGIDESNVRLEHHHHHH | not soluble
MGSDKIHHHHHHMTKIKHIFSDLDGTLLDDQGKISKKTQEVIENSNLPFSLVSARAPQAMESLINQLNLKSSQVAFNGGLIFAKNEVIKANPMVHASAQELIKTIKKDYPEINLSLYSLSDWYVEKIDKDIEQEMQFTPQVPKLVDLETLITERPRLEIFKILLITPNESKLEEIKKHLEKLNFPDIIIQKTWETYLEITHLEAQKAKAVQFIAQREQLEQSELAAFGDNENDLSMLKAVGLPIVMANASDDLKKIGKVITKSNTEDGVAYGIQKYITDSLF | not soluble
MSLSSITNVAATAGVSIATVSRVLSGKRGKDDDIARRVREAAKQLGYSVNYAASALRSDVTKTIGLVIPSATEPFSAQLLDEIEPTIDTESQQLLLGIGATQEAQAERIESLVNRHVDGLIVVPAAGADLAGTLNQYANTLPIVQICGRQTAPRVSVVGIDENAAMEAIVKHLAEQGIASAAYMAGDELSFESAELFATFHTHMRTYGLVTSENWNQFGERTVQRGFDCAMRLFNGPLVQPEAVVCADDAIAFGVMVAFDALGIRVPEDVLVVGYHDSAIARTTMPRLTSVRAPFERIVSECLRLLASGPAGGAAETAAAPGGSVRAPRVMLAPQLIVRDSSVFREGHHHHHH | soluble
MGSDKIHHHHHHMTKKLTNQLIDVTSGRNFRELGGYETNSGKKIKMHKLLRTGNLADLSPFDKQFLTDYGVKYDVDFRSKEEVERQPDRVPDGVEYIYDPVFSEDLTNSSKSINDLNTQASDDADFGFNHMHYAYEDMIESESAQKAYRKFFDVLLKNDVEGESVIFHCTAGKDRTGFGALLILSALGVPFNTIKKDYLLTNITTKEFVESMVEHARQNGRNENVLQSIRDIQSVRAEYIDHAVKIINDDYGSIHNYLRDMMKLSSADIMKLRNIYLED | not soluble
HERRTVLAEWSIGIDIGGTFTDLVALDYAGGKLHSLKMLTTYDDPSLAVMEGVRQLMATCGIAASEVGRVVHATTLFTNALISRAGARTGLLCNQGFMDAIEIGNERKYDLYDLAIDRPPPLVPRDLRREIPGRLDAHGNELEPLDRQAVVAMARSLADAGATSIAVCLLHAYASPRHEQQVHAWIRQAL | not soluble
MGSDKIHHHHHHMETIGQTLAKKDNHKYDTEKMTQAILSDQEIANFIAAHHLSKEQIKISLPKFNQYRLERTRFENHDQAYIAKGYQPLLVMNEGYADVAYKETKELIAAKKTQAISDRINVVSLPRSYKNISFDDINLDDVKRLDVFKRVADFVEQYPNPEQKGLYLYGDMGIGKSYLMAAMAHELSEQRGAATTLLHFPSFTIDVKNAINTGTVKKEIDAVKTADILILDDIGAEQSTSWIRDEVLQVILQYRMLEELPTFFTSNYSFKDLEAKLANIKGSDETWQAKRVMERIRYLAKEIHLEGENRR | not soluble
MKAYLGLYTARLETPARSLKEKRALIKPALERLKARFPVSAARLYGLDAWGYEVVGFTLLGNDPAWVEETMRAAARFLAEAGGFQVALEEFRLEAFELDGLL | soluble
MGSDKIHHHHHHMADIALFQDDAFSLSSLTAAINEQPHVPGRVGALGLFEEDGITTTTIQIERDGDTLSLVSAGERGSPSAIVVGSKRTMIPFNTVHLPQRAFVKADEIQNLRAFGSETELEALQTVVNRRLAKLRRQLDATHEFHRIGAIKGAVLDADGKTVLIDLLQYFGIEQTVIPFELGKADTEIRVKCLEVQDAIEDALGATTYTGVRVLCGRAFWNKLIVAKTVKETYLATAMAASLRGDAREALDFGGCTFERYRGRVGDIGYVADDEAYAVPEGVPELFVTRFAPADYVEAVNTTGLPYYAKQELAQFGKGVDIEAQSNPVHLCTRPKAIVKLKA | not soluble
MGSDKIHHHHHHMKTSPRSNRLHIALFGKRNSGKSSLINALTNQNAALVSDIAGTTTDPVYQPMEIHGIGPCVFIDTAGFDDEGELGSLRIERTLQAADKADIALMVCCDTELSEEQRWIELLKERNIPYLLVLNKADLLEKPDEVADKLEQQTGQHPLIVSAKEKTGIDSIRQSILHRLPELNEQPDIVGDLANEGDVVLLVMPQDIQAPKGRLILPQVQTLRELLDKKCITLSCTTDQLDNALKALSVPPSLIITDSQVFRTVYEKKPPQSRLTSFSVLFARYKGDIDYYTEGAYIIDQLTENSRVLIAEACTHAPLSEDIGRVKLPRMLRKRIGEKLHIDIVSGNDFPKDLNCYDLIIHCGACMFNRKHVLNRIVKAKAQGVPMTNYGIVIAYINGIPFH | not soluble
MDRVLPFRFAEEEGVFWLLDQRRLPQEEVYVPVRTAREMAQAIRDMVVRGAPAIGVSAAFGMVLAHLAGEDLEEADRRLRASRPTAVNLFHALDRMRPFWGDLAGSLLEARRIWREVEETEAAISRHGAQVLWGQVLTHCNTGPLATGGYGTALGAIVEAYRLGRVRHVWVDETRPYLQGARLTAYELQKAGVPATLITDGMAGWLMARGAVDAVVVGVDRMALNGDFANKVGTYALAVLAHHHGIPFYAALPLSSVDPRLASGEGIPIEERSPEEVVAFRGVRIAPEGFPAYHPAFDVTPHRYLTGIITEKGVLYPPFAEGLRRALGLD | soluble
MGSDKIHHHHHHKTRTVFVCQQCGAQQSRWMGKCPECGAWDSLVEQIVTPARGTGGQRAATVGQNQPIRLRDVPLTDFQRLPVYAEEFARVLGGGLVPGSVVLIGGDPGVGKSTLLGQVAAHFAASVGPALYVSAEESAQQIRLRAERLGLTADDLFLLAETSLDLIIEHIRHLRPRLVIVDSIQTVYLPELTSAAGSVSQVREGALRLMQLAKETAIPIVLVGHVTKEGAIAGPRVLEHIVDVVLYLEGDRFHQFRLLRGGKNRFGSTNEVGVFEMTGDGLREVRNPSQVFLAERNTQSPGSTVTVTLEGTRPLLVEVQALTSHTGNAQPRRTTNGFDLNRLLMLTAVLSKRVGLPLFNQDLYVNIVGGLRIGEPAADLAVALAIASSYRNQRIASRSGLPW | not soluble
MSLTHLFYLTRGAPLSLKENYYPWLKAGSFFPDALYSCAPSNKDWSDFAEFTHWPNFLMIAVSYWQQKYGQNDRLRGTHGSLALKSFLIGVFTHQIVDVSWHSLVTDYRMHGLLRVLSETEFDGDIETAHTFLDVMGEFLTLNNVIRDSNNNENWDFLTRSDWKLPREEDLMEIIRNAGLSKEKLSYAELEFCVKRGMAAAISEGYLFRSQRNQLLTNIYSTSPRANDLILNHWLGGQSNLVAMLQRCVPFFETLFHDENTNEAQAEELRLCANLPPVSQKRINARPLVSSLKARKGNSHIVVSPMKSFSDFGTSLTMGKFREDNKDYLAVSAPLEDTVGAIYIVPWDILTVARKEDFSILQPITAMYGSKVGTYKASDVDYLLVSQPGTCTIDFYFKGVKILTIKDETTEEAHQLQFAVTGNFYDDKIPDLVVSSPSYGANETGIATFIPGSSIISYLTNSDKYQVVDISTFKGVINLDGYPMKIPFQHFGATIQISDTTDKQKLIYITCQSLGTVFVYSSNDLHDLSIPIYYITKNGVIPAKDSDHVEWHIIPSKEHGMFGAAIYSWNFEGMSFVAVSQPMFDTVFIYIEKSGQIEFFLKLVLKIKTKSDSIPDEFGSSLLFNDEEKKLYVSSPGSFDARGSIWKISMDELLKAGNDPKRKTLLINNLRHLMLINPDKSSKGVSNFGNSMILGPQNHLIVGIPQYGYGNFDHMQLTGRILVLEGHHHHHH | not soluble
MSLRTVDEKKEQVEKLIQSLDEGVKNFTYNPGRFKALLEMQALMPKYTFRNIMLARIQLPEAQFIASFNRWKELGRNVKKGERSLRILAPRFKKVKDEITGEEETKLIGFLGVPVFDVSQTEGDPLPADRIKLTLDGESQEAVDIFEWVKELAKEDDCPVTIKHADGANGYYSITNHAIVVDSKLSINHRAKTGVHELVHSRVHRNINGTTATERECVAEGVAFIVCSYFGLDTSDYSFEYVNGWSKDGGESLMKYGDIMQKTANLLIEDFERVAEKSQAQAAGEGEKNDSPISAEGHHHHHH | soluble
MPLKAYRPPEDPGLWDTYLEWLERALKVAEAHPTTLEYLAHPKRLVTLSLPVVMDDGKVRIFQGYRVVHDIARGPAKGGVRLDPGVTLGQTAGLAAWMTLKAAVYDLPFGGAAGGIAVDPKGLSPQELERLVRRYTAELVGLIGPDSDILGPDLGADQQVMAWIMDTYSMTVGSTVPGVVTGKPHALGGSEGRDDAAGLGALLVLEALAKRRGLDLRGARVVVQGLGQVGAAVALHAERLGMRVVAVATSMGGMYAPEGLDVAEVLSTYEATGFLPRLDLAPEEVFGLEAEVLVLAAREGALDGDRARQVQAQAVVKVANFGLTPEAEAYLLGKGALVVPDLLSGGGGLLASYLEWVQDLNMFFWSPEEVRERFETRVARVVDAVCRRAERGGLDLRMGALALALERLDEATRLRGVYP | soluble
MGSDKIHHHHHHMKRLIGCVLLFLGASLYGCGGQGEDPETIVSEKPIEEWDDEEEDGGEWTVPDIDLSNFRHDPTEWGENVTGVKTKLDTKEQVIALTLDACGGPHGSQFDEELLAYLQEKEIPATLFVNERWIDENEDVFLSLANNPLFQIENHGSAHKPLSVNGRNAWNIEGTKSPEEVVNEITNNQQRIYQLTGRSTRLFRSGTAFYDEVAVEIANALGVEVVNYSVLGDAGATFTAEQVKAALLNAEPGAIVLMHMNQPASGTAAGVKAAIPLLIEKGYTFARLDEYDLT | not soluble
MGSDKIHHHHHHLSGQQDDVEDGMDQDTLTRIAEALERMAPVPQSTPDFSAASGFVWHVEPDRLEPVPEINRVELDLLVGIDRSRDTLLENTRRFAAGHAANNALLWGARGMGKSSLVKAIHGALVTDHPELKLVELQREDLPSVARLLNHLRGAPCRFILFCDDLSFSHDDQHYKSLKAVLDGGIEGRPENVVFYATSNRRHLMPRDMIENERSSAINPSEAVEEKVSLSDRFGLWLGFHPCNQDAYLAMIEGYCAAYGVTVDPERLRAEAIEWQATRGARSGRVAWQFFTDLAGREGVALR | not soluble
